Results published in article PMC9596371 (Nature Chemical Biology, 2022).

Assays:
[1] = molecular target: T1, SARS-CoV-1 spike protein (FL-GCN4-Avi-His, 2P, biotinylated trimer) (SARS-CoV (SARS-CoV-1), strain of …, UniProt P59594, stabilised, biotin on the Avi tag); assay: ELISA; conditions: both partners purified
[2] = molecular target: T1, SARS-CoV-1 spike protein …; assay: BLI; conditions: both partners purified

Binder	binding result [1]	binding result [2]
COV2-2449 IgG (antibody, V domains shown) VH: QVQLVESGGGVVQPGRSLRLSCATSGFTFSSFALHWVRQAPGKGLEWVTVISDDGNNKYYVDSVKGRFTISRDNSKNTLFLQMNSLRVEDTAIYYCARASYNSNWSIGEYFRDWGQGTLVTVSS VL: not shown	binds	
CV27 IgG (antibody, V domains shown) VH: QVQLVESGGGVVQPGRSLRLSCAASGFTFSSYAMHWVRQAPGKGLEWVALISYDGSNKYYADSVKGRFTISRDNSKNTLYLQMNSLRAEDTAVYYCARSFGGSYYYGMDVWGQGTTVTVSS VL: QSALTQPASVSGSPGQSITISCTGTSSDVGGYNYVSWYQQHPGKAPKLMIYDVSNRPSGVSNRFSGSKSGNTASLTISGLQAEDEADYYCSSYTSSSTPYVFGTGTKVTVL		binds
COV2-2147 IgG (antibody, V domains shown) VH: QVQLAESGGGVVQPGRSLRLSCAASGFTFSSYAMHWVRQAPGKGLEWVAVISYDGSNKYYADSVKGRFTISRDNSKNTLYLQMNSLRAEDTAVYYCARSTSGSYYYGMDVWGQGTTVTVSS VL: QSALTQPASVSGSPGQSITISCTGTSSDVGDYNYVSWYQQHPGKAPKLMIYDVSNRPSGVSNRFSGSKSGNTASLTISGLQAEDEAEYYCSSYTSSSTLLYVFGTGTKVTVL		binds
COVA2-14 IgG (antibody, V domains shown) VH: QVQLVQSGAEVKKPGSSVKVSCKASGGTFSSYAIIWVRQAPGQGLEWMGGIIPIFGTANYAQKFQGRVTITTDESTSTAYMELSSLRSEDTAVYYCARVRYYDSSGYYEDYWGQGTLVTVSS VL: EIVLTQSPATLSLSPGERATLSCRASQSVSSYLAWYQQEPGQAPRLLIYDASNRATGIPARFSGSGSGTDFTLTISSLEPEDFAVYYCQQRSNWPPMYTFGQGTKVEIK	binds	
COVA2-18 IgG (antibody, V domains shown) VH: EVQLVQSGAEVKKPGSSVKVSCKASGGTFSSYAISWVRQAPGQGLEWMGGIIPIFGTTNYAQKFQGRVTITTDESTSTAYMELSSLRSEDTAVYYCARVYSYDSSGYYLEYWGQGTRVTVSS VL: EIVLTQSPATLSLSPGERATLSCRASQSVSSYLAWYQQKPGQAPRLLIYDASNRATGIPARFSGSGSGTDFTLTISSLEPEDFAVYYCQQRSNWPPSITFGQGTRLEIK		binds
COV2-2143 IgG (antibody, V domains shown) VH: EVQLVESGGGLVQPGGSLRLSCAASGFTVSSNYMSWVRQAPGKGLEWVSVIYSAGSTYYADSVKGRFSISRDKSKNTLYLQMNSLRAEDTAVYYCAKEGGSGSLRYYYYGMDVWGQGTTVTVSS VL: not shown	binds	
